Earlier results in paper PMC10474108.
pKd: −log10 of the molar value.

Molecular target: tau (full-length, nonphosphorylated) (Homo sapiens) (UniProt P10636)
Sequence of UniProt P10636 (P10636 2-758): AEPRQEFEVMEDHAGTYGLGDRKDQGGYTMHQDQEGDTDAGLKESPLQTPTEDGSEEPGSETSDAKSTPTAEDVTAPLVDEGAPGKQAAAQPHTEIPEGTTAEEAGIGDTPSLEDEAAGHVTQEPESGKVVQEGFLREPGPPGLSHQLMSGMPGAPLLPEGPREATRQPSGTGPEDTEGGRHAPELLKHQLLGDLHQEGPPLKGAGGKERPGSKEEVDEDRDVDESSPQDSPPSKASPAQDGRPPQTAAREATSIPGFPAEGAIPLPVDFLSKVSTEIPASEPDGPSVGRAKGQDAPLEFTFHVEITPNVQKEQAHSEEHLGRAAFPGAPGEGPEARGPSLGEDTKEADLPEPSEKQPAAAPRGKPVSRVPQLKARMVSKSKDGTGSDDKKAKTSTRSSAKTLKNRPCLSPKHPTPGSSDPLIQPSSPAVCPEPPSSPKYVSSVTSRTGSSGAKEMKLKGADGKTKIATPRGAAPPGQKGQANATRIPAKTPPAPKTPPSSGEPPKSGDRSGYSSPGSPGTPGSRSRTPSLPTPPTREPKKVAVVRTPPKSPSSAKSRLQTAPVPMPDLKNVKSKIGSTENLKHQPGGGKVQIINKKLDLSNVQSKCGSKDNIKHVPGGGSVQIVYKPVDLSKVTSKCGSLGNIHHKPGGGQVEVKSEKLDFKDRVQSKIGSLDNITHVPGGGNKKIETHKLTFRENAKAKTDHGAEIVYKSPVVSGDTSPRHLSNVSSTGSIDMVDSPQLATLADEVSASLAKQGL

LRP1 (from UniProt Q07954)
pKd: 7.22
